From publication PMC7846742

B1: His6-ODC-Ctag (human Ornithine Decarboxylase) (enzyme)
chain: NNFGNEEFDCHFLDEGFTAKDILDQKINEVSSSDDKDAFYVADLGDILKKHLRWLKALPRVTPFYAVKCNDSKAIVKTLAATGTGFDCASKTEIQLVQSLGVPPERIIYANPCKQVSQIKYAANNGVQMMTFDSEVELMKVARAHPKAKLVLRIATDDSKAVCRLSVKFGATLRTSRLLLERAKELNIDVVGVSFHVGSGCTDPETFVQAISDARCVFDMGAEVGFSMYLLDIGGGFPGSEDVKLKFEEITGVINPALDKYFPSDSGVRIIAEPGRYYVASAFTLAVNIIAKKIVLKEQTGSDDEDESSEQTFMYYVNDGVYGSFNCILYDHAHVKPLLQKRPKPDEKYYSSSIWGPTCDGLDRIVERCDLPEMHVGDWMLFENMGAYTVAAASTFNGFQRPTIYYVMSGPAWQLMQQFQ
B2: ODC ΔN ΔC 4KR with K92 re-introduced (enzyme)
chain: DCHFLDEGFTAKDILDQKINEVSSSDDKDAFYVADLGDILKKHLRWLKALPRVTPFYAVKCNDSRAIVRTLAATGTGFDCASKTEIQLVQSLGVPPERIIYANPCKQVSQIRYAANNGVQMMTFDSEVELMKVARAHPKAKLVLRIATDDSKAVCRLSVKFGATLRTSRLLLERAKELNIDVVGVSFHVGSGCTDPETFVQAISDARCVFDMGAEVGFSMYLLDIGGGFPGSEDVKLKFEEITGVINPALDKYFPSDSGVRIIAEPGRYYVASAFTLAVNIIAKKIVLKEQTGSDDEDESSEQTFMYYVNDGVYGSFNCILYDHAHVKPLLQKRPKPDEKYYSSSIWGPTCDGLDRIVERCDLPEMHVGDWMLFENMGAYTVAAASTFNGFQRPTIYYVMSGPAWQLMQQFQ

What was measured:
[1] = target: AviTag-His6-OAZ-GSY-SPM-Ctag (wt, with C175A) (human | Neisseria meningitidis serogroup B (strain MC58)) (UniProt Q9JYV5); assay: SPR; Biacore T200; biotinylated AviTag-OAZ-GSY-SPM variants immobilised with the Biotin CAPture Kit, ODC flowed over; HBS with 2 mM TCEP and 0.02 mM PLP; 25 °C; 1:1 binding model
[2] = target: His6-OAZ-GSY-SPM-Ctag (human | Neisseria meningitidis serogroup B (strain MC58)) (UniProt Q9JYV5); assay: cross-linking; NeissLock: Ca2+-induced aspartic anhydride on OAZ reacts with the docked partner; purified proteins mixed at 10 µM each or as indicated (AZI 2.5 µM each; Fig. 4b 0.5 µM each; 30 µM ODC with 10 µM OAZ-Y-SPM), 37 °C, HBS pH 7.4 with 2 mM TCEP, 10 mM CaCl2 unless varied (pH 6.5-8.5, 0.5-10 mM Ca2+, TBS, lyophilised probe); SDS-PAGE with Coomassie, intact ESI-MS, tryptic LC-MS/MS

Binder | Kd [1] [nM] | coupling yield after 2 h, lyophilized OAZ-GSY-SPM [2] [%] | coupling yield after 2 h, untreated control [2] [%] | coupling yield at 0.5 mM Ca2+ compared to 10 mM Ca2+ after 2 h [2] [%] | coupling yield in TBS compared to HBS after 2 h [2] [%] | half-time of the conjugation reaction at pH 7.0 [2] [min] | conjugation compared to wild-type ODC [2] [%]
B1 | 120 | 51 | 48 | 78 | 95 | < 2 | –
B2 | – | – | – | – | – | – | 89
